From the supplement of paper PMC9170038

System: MS2 coat protein
Assay: apparent KD of MS2 coat protein; designed switch direction (-1 OFF switch, 1 ON switch): -1; higher = weaker reporter binding
Method in brief: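 Designed RNA switches with common flanks were transcribed on Illumina chips by stalled E. coli RNA polymerase and titrated with SNAP-549-labelled MS2 coat protein, from 0.7 or 1.5 nM doubling to 3 µM, in Tris-HCl pH 7.5 buffer with KCl, MgCl2, BSA, DTT, tRNA and Tween-20. Steps lasted 0.8–1.5 h (lowest) to 10–20 min (highest). Titrations ran without input, with 200 uM small-molecule ligand, or with an oligonucleotide input. Normalised cluster fluorescence was curve-fitted, and apparent KD is the per-design median over clusters.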

[1] = Eterna round: R95, input ligand: microRNA oligo, concentration not stated
[2] = input ligand: microRNA oligo, concentration not stated
[3] = Eterna round: R95, input ligand: FMN 200 uM
[4] = Eterna round: R95, input ligand: none

UUAUACAAGCAAAGAUCCCACAUGAGGAUCACCCAUGUGCUCGUCUUAUAAGGUACUGUGACGAUAGUCACGGUACC [Mat - Sensor, turn-off var - Eli Mod - D102] (Eterna round: R97, puzzle: Sensor, turn-off variant 1)
apparent KD of MS2 coat protein (input ligand: FMN 200 uM): 38.3 nM
apparent KD of MS2 coat protein (input ligand: none): 49.9 nM

UUAUACGUUGAGGAUAUGCGACUUUGUAUAGUUGUAGAAGGCGAUACAUGAGGAUCACCCAUGUUUAUGGGCAU [LRO-Ex6-10] (puzzle: Exclusion 6)
apparent KD of MS2 coat protein [1]: 186 nM

UUAUACGUUGAGGAUAUGCGAUUUAGUAUAGUUGUAGAAGGCGAUACAUGAGGAUCACCCAUGUUUAUGGGCAU [LRO-Ex6-08] (puzzle: Exclusion 6)
apparent KD of MS2 coat protein [1]: 268 nM

UUAUAGUAUGUAGGAUAUCGGUCAGUUUCUGAUCGAGAAGGACAUGAGGAUCACCCAUGUAAGGCUACCGGUUUCUGGUGGCCG [JL ENG1 3.53] (Eterna round: R96, puzzle: Exclusion NG 1)
apparent KD of MS2 coat protein (input ligand: FMN 200 uM): 122 nM
apparent KD of MS2 coat protein [2]: 16.5 nM
apparent KD of MS2 coat protein (input ligand: none): 26.1 nM

UUAUAUAGUGUGAGGAUAUGCUGGUCCUUGGAUCAGCAGAAGGCACAUGAGGAUCACCCAUGUAGUUUAUUAUU [Mat - Exclusion 4 - JL Mod - D10] (puzzle: Brourd's mod of Exclusion 4)
apparent KD of MS2 coat protein [1]: 24.8 nM

UUAUCCCAUGUGAGGAUAUUAUUUUAAAGAUGCAAUGAGAAGGUACAUGAGGAUCACCCAUGUCCGCGAAAUAU [Eternabot (L2) Solution 57] (Eterna round: R97, puzzle: Brourd's mod of Exclusion 4)
apparent KD of MS2 coat protein (input ligand: FMN 200 uM): 15.4 nM
apparent KD of MS2 coat protein (input ligand: none): 15.4 nM

UUAUUAAGUGUGAGGAUAUGCUGGUCCUUGGAUCAGCAGAAGGCACAUGAGGAUCACCCAUGUACUUUAUAAAU [JL bmx4 3.05] (puzzle: Brourd's mod of Exclusion 4)
apparent KD of MS2 coat protein [1]: 14.6 nM

UUAUUACAAGCAAGAUCUCACAUGAGGAUCACCCAUGUGCUCGUCUUAAAAGGUACUGUGACGAAAGUCACGGUACC [Eli 100 v3] (Eterna round: R97, puzzle: Sensor, turn-off variant 1)
apparent KD of MS2 coat protein (input ligand: FMN 200 uM): 16.4 nM
apparent KD of MS2 coat protein (input ligand: none): 14.9 nM

UUAUUACGAGGAUAUCGUUUUUAUCACAUGAGGAUCACCCAUGUUGUUUAUGUUUCGUUUCGAGAAGGCGUUUGUU [JR_E5_Sub066] (puzzle: Exclusion 5)
apparent KD of MS2 coat protein [1]: 24.4 nM

UUAUUUCAAGCAAGAUCCUACAUGAGGAUCACCCAUGUGCUCGUCUUAUAAGGUACAGUGACGAAAGUCACAGUACC [Sensor 3, v1 - 000] (puzzle: Sensor v3, turn-off variant 1)
apparent KD of MS2 coat protein [3]: 173 nM
apparent KD of MS2 coat protein [1]: 152 nM
apparent KD of MS2 coat protein [4]: 202 nM

UUCACAUGGACAUAAGAUCACAUGAGGAUCACCCAUGUGAAUAACAAGCUUUUUGUUCGUCUUAUGUCCAAUAAUAG [Stov1/14-B2] (Eterna round: R97, puzzle: Sensor, turn-off variant 1)
apparent KD of MS2 coat protein (input ligand: FMN 200 uM): 13.7 nM
apparent KD of MS2 coat protein (input ligand: none): 13.5 nM

UUCACAUGGACAUGAGAUCACAUGAGGAUCACCCAUGUGAAUAACAAGCUUUUUGUUCGUCUUAUGUCCAAUAAUAA [Stov1/14-D1] (Eterna round: R97, puzzle: Sensor, turn-off variant 1)
apparent KD of MS2 coat protein (input ligand: FMN 200 uM): 14.1 nM
apparent KD of MS2 coat protein (input ligand: none): 13.1 nM

UUCACGUCAGGAUAUCCAAAGUUCCGAAAUAACGGUACUUUGGAGAAGGGACAUGAGGAUCACCCAUGUCCUCG [LRO-Excl4-17-Nando 22 Mod] (Eterna round: R97, puzzle: Exclusion 4)
apparent KD of MS2 coat protein (input ligand: FMN 200 uM): 40.3 nM
apparent KD of MS2 coat protein (input ligand: none): 22 nM

UUCAUGUUAGGAUAUUCCGCCACAGAGAAAGACUGUGGAAUGAAGAAGGGACAUGAGGAUCACCCAUGUUCCAA [EX4 A.5] (Eterna round: R97, puzzle: Exclusion 4)
apparent KD of MS2 coat protein (input ligand: FMN 200 uM): 14.2 nM
apparent KD of MS2 coat protein (input ligand: none): 14.3 nM

UUCCUACAUGAGGAUCACCCAUGUCAGGAUAUCUCCUCACUGCGCUUGCGCAGUGAAUAGAGAAGGGACAGGCU [JL ViennaUCT Aner mod 1] (puzzle: Exclusion 1)
apparent KD of MS2 coat protein [1]: 15.9 nM

UUCGGCGCAGGAUAUACAGUUUUGUGUUGAAUCGGCGCGAAACAUGAGGAUCACCCAUGUAGAAGGGUGUUGAA [-24.2, -22.3 kcal, A 27%] (Eterna round: R97, puzzle: Exclusion 2)
apparent KD of MS2 coat protein (input ligand: FMN 200 uM): 736 nM
apparent KD of MS2 coat protein (input ligand: none): 1220 nM

UUCGUGCAGCUUUGCUGUACGCGUACAUGAGGAUCACCCAUGUAGGAUAUGGUACGCUUUGCGUGCUAGAAGGAUAUGGAGAGG [JL EXNG3 1.34] (Eterna round: R96, puzzle: Exclusion NG 3)
apparent KD of MS2 coat protein (input ligand: FMN 200 uM): 62.9 nM
apparent KD of MS2 coat protein [2]: 28.7 nM
apparent KD of MS2 coat protein (input ligand: none): 37.6 nM

UUCGUGCAGCUUUGCUGUACGCGUACAUGAGGAUCACCCAUGUAGGAUAUGGUAGGCAAAGCUUACUAGAAGGAUAUGGUGAGC [Mat - Exclusion NG 3 - Mod of JL - D79] (Eterna round: R96, puzzle: Exclusion NG 3)
apparent KD of MS2 coat protein (input ligand: FMN 200 uM): 30.3 nM
apparent KD of MS2 coat protein [2]: 15.5 nM
apparent KD of MS2 coat protein (input ligand: none): 21.4 nM

UUCGUGCAGCUUUGCUGUACGCGUACAUGAGGAUCACCCAUGUAGGAUAUGGUAGGCUUUGCUUACUAGAAGGAUAGUGUGAUC [JL EXNG3 1.30] (Eterna round: R96, puzzle: Exclusion NG 3)
apparent KD of MS2 coat protein (input ligand: FMN 200 uM): 137 nM
apparent KD of MS2 coat protein [2]: 123 nM
apparent KD of MS2 coat protein (input ligand: none): 88.7 nM

UUCUUGCAAGGAUAUGAUUUAAGUAACAUGAGGAUCACCCAUGUUUUUCCGUUGUUAUGUUCAGAAGGUGCGUGAU [JR_E5_Sub021] (puzzle: Exclusion 5)
apparent KD of MS2 coat protein [1]: 54.2 nM

UUCUUGGCAGGAUAUGCUUUUUUAGACAUGAGGAUCACCCAUGUGAUGAUUAUUGGUUUUGCAGAAGGGCCUUAAU [JR_E5_Sub041] (puzzle: Exclusion 5)
apparent KD of MS2 coat protein [1]: 49.4 nM

UUGAAGUAAGGAUAUACAUGAGGAUCACCCAUGUAAAGGAAAGUAAUGGGAGUAGGAAGUAGAAGGUACGAGGA [JR_Exclu3_Sub062] (puzzle: Exclusion 3)
apparent KD of MS2 coat protein [3]: 49 nM
apparent KD of MS2 coat protein [1]: 66.6 nM
apparent KD of MS2 coat protein [4]: 134 nM

UUGACCCACGUCAGGAUAUCAAGAAAAGAGGCUCUUGAGAAGGGACAUGAGGAUCACCCAUGUAAGAAAUAAAU [Qumabibe] (puzzle: Brourd's mod of Exclusion 4)
apparent KD of MS2 coat protein [3]: 101 nM
apparent KD of MS2 coat protein [1]: 28.4 nM
apparent KD of MS2 coat protein [4]: 34.6 nM

UUGAUACAUACCUCCAUAAACAUGAGGAUCACCCAUGUAAGUGAGGAUAUAGAUUGAUUAGUAUACUAGAAGGCACUUAGAUAU [JR_ExcNG3_Sub044] (Eterna round: R96, puzzle: Exclusion NG 3)
apparent KD of MS2 coat protein (input ligand: FMN 200 uM): 11.6 nM
apparent KD of MS2 coat protein [2]: 8.91 nM
apparent KD of MS2 coat protein (input ligand: none): 13.3 nM

UUGAUGUCAUCAGGAUAUAGUAUUUAAGACAUAUAUUUUUUCAAACAUGAGGAUCACCCAUGUCGCUAGAAGGGAUUAUAGAUU [JR_ExcNG2_Sub082] (Eterna round: R96, puzzle: Exclusion NG 2)
apparent KD of MS2 coat protein [2]: 29.6 nM

UUGCAGUCGUCAGGAUAUAGUAUUACGGCCUUUCAUUUCUUCAUACAUGAGGAUCACCCAUGUCGCUAGAAGGGCUUCUCGCUU [salish99_ExNG2_r04_109] (Eterna round: R96, puzzle: Exclusion NG 2)
apparent KD of MS2 coat protein (input ligand: FMN 200 uM): 15.3 nM
apparent KD of MS2 coat protein [2]: 14.6 nM
apparent KD of MS2 coat protein (input ligand: none): 17.6 nM

UUGCCACAUGAGGAUCACCCAUGUGAGGAUAUGGCCCGCCCGGCGUGUGCUGGUUUUGUCAGAAGGCGCGUGGG [salish99_ex1_r4_029] (Eterna round: R97, puzzle: Exclusion 1)
apparent KD of MS2 coat protein (input ligand: FMN 200 uM): 52.4 nM
apparent KD of MS2 coat protein (input ligand: none): 27.9 nM

UUGCCACAUGAGGAUCACCCAUGUGAGGAUAUGGCCUGUUUGGAGUGUGCUGGUUCUGUCAGAAGGCGCGUGGG [salish99_ex1_r4_033] (Eterna round: R97, puzzle: Exclusion 1)
apparent KD of MS2 coat protein (input ligand: FMN 200 uM): 49.5 nM
apparent KD of MS2 coat protein (input ligand: none): 33.6 nM

UUGCUCGUCUUGCUUCCUAACAUGAGGAUCACCCAUGUCGACGGUGAGACGCAAGAGCCAUCUCGCCGUUGAUCGUC [Eternabot (Original) Solution 4] (Eterna round: R97, puzzle: Sensor, turn-off variant 1)
apparent KD of MS2 coat protein (input ligand: FMN 200 uM): 134 nM
apparent KD of MS2 coat protein (input ligand: none): 159 nM

UUGGUGUCAGGAUAUGCACAGGUCGCACAAAUUGCAGCCUAGCAGAAGGGACAUGAGGAUCACCCAUGUACUCU [EX4 B.21] (Eterna round: R97, puzzle: Exclusion 4)
apparent KD of MS2 coat protein (input ligand: FMN 200 uM): 30 nM
apparent KD of MS2 coat protein (input ligand: none): 18.8 nM

UUGGUGUCAGGAUAUGCUUAAUAUAUUUUAUUAUAAUAUAUACAUGAGGAUCACCCAUGUAGAAGGGACAUUGU [LRO-Excl2-07-Fireball XL5] (Eterna round: R97, puzzle: Exclusion 2)
apparent KD of MS2 coat protein (input ligand: FMN 200 uM): 30.2 nM
apparent KD of MS2 coat protein (input ligand: none): 45.8 nM

UUGUAGUUUGUAGGAUAUGGUUAUGUAUGUAAUCUAGAAGGACAUGAGGAUCACCCAUGUGGAGGUAAGUUGGGAAGAAGUAAU [random1] (Eterna round: R96, puzzle: Exclusion NG 1)
apparent KD of MS2 coat protein (input ligand: FMN 200 uM): 55.6 nM
apparent KD of MS2 coat protein [2]: 30.8 nM
apparent KD of MS2 coat protein (input ligand: none): 56.4 nM

UUGUGCACGCUGCGGUCCUACAUGAGGAUCACCCAUGUGGUCUGGUGGCGUGGGUCACCGGACUUGGCUCGUCUUGA [salish99_S_TOV1_R5_061] (Eterna round: R97, puzzle: Sensor, turn-off variant 1)
apparent KD of MS2 coat protein (input ligand: FMN 200 uM): 52.7 nM
apparent KD of MS2 coat protein (input ligand: none): 57.8 nM

UUGUUACAUGAGGAUCACCCAUGUGAGGAUAUGAGUCAGUCACGGUGACGUGGCUGACUCAGAAGGCACAAAGG [Mat - Exclusion 1 - JL Mod - D40] (Eterna round: R97, puzzle: Exclusion 1)
apparent KD of MS2 coat protein (input ligand: FMN 200 uM): 310 nM
apparent KD of MS2 coat protein (input ligand: none): 120 nM

UUGUUACGAUUAGGAUAUUAUAGAUUGAAUAGUAUGAUUUACAUGAGGAUCACCCAUGUUACAUUUAAGAAGGAAUCGAAUUAU [JR_ExcNG2_Sub089] (Eterna round: R96, puzzle: Exclusion NG 2)
apparent KD of MS2 coat protein [2]: 16.1 nM
